Experimental data as given in patent US20230382979A1 (ADAPTIVE BIOTECHNOLOGIES, published 2023).

Columns and labels:
[1] = biological target: T1, S1 subunit of the SARS-CoV-2 spike protein, WA01/2020 strain (SARS-CoV-2, WA01/2020 strain, UniProt P0DTC2 16-685); test: ELISA, antibody at 0.1 ug/mL
[2] = biological target: S2 subunit of the SARS-CoV-2 spike protein, WA01/2020 strain (SARS-CoV-2, WA01/2020 strain, UniProt P0DTC2 686-1213); test: ELISA, antibody at 0.1 ug/mL
[3] = biological target: SARS-CoV-2 nucleocapsid (N) protein (SARS-CoV-2, UniProt P0DTC9 1-419); test: ELISA, antibody at 0.1 ug/mL
[4] = biological target: T2, SARS-CoV-2 spike (S) protein trimer, WA01/2020 strain (SARS-CoV-2, WA01/2020 strain, UniProt P0DTC2 16-1213)
[5] = biological target: T2, SARS-CoV-2 spike (S) protein trimer, …; test: dose-response ELISA on coated antigen
[6] = biological target: T1, S1 subunit of the SARS-CoV-2 spike …
[7] = biological target: T1, S1 subunit of the SARS-CoV-2 spike …; test: dose-response ELISA on coated antigen

Row | Binder | binding result [1] | binding result [2] | binding result [3] | Kd [4] | EC50 [5] | Kd [6] | EC50 [7]
1 | antibody 2019 (antibody, V domains shown) VH: QVQLVESGGGVVQPGGSLSLSCAASGLSFSSYGMHWVRQAPGKGLEWVAFIRYDVSNKYYADSVKGRFTISRDNSKNTLYLQMNSLRVEDTAVYYCATWAPLDDGMDVWGQGTTVTVSS VL: SYELTQPPSVSVSPGQTARITCSGDALPKQYAYWYQQKPGQAPVLVIYKDTERPSGIPERFSGSSSGTTVTLTISGVQAEDEADYYCQSGDSSGTFYVVFGGGTKLTVL | no binding (tested: 0.1 ug/mL) | no binding (tested: 0.1 ug/mL) | no binding (tested: 0.1 ug/mL) | 0.057 nM | 0.024 nM | – | –
2 | antibody 1238 (antibody, V domains shown) VH: QVQLVQSGSELKKPGASVKVSCKASGYTFTNYGMNWVRQAPGQGLEWMGWINTNTGNPTNAQGFTGRFVFSLDTSVSTAYLQINSLKGEDTAVYYCARVADTGEMDVWGQGTTVTVSS VL: SYELTQPPSVSVSPGQTARITCSGDALPKQYAYWYQQKPGQAPVLVIYKDSERPSGIPERFSGSSSGTTVTLTISGVQAEDEADYYCQSADSSGSYNWVFGGGTKLTIL | – | no binding (tested: 0.1 ug/mL) | no binding (tested: 0.1 ug/mL) | – | 0.069 nM | 0.027 nM | 0.028 nM
3 | antibody 2854 (antibody, V domains shown) VH: QVQLVQSGAEVKKPGSSVKVSCKASGGTFSSYAISWVRQAPGQGLEWMGGIIPIFHTANYAQKFQGRVTITADESTSTTYVELSSLRSEDTAMYYCATLPITIFGEEYSFDNWGQGTLVTVSS VL: DVVMTQSPLSLPVTLGQPASISCRSSQSLVHSDGNTYLSWFQQRPGQSPRRLIYKVSDRDSGVPDRFSGSGSGTDFTLKISRVEAEDVGIYYCMQGTHWPPLTFGGGTKVEIK | no binding (tested: 0.1 ug/mL) | no binding (tested: 0.1 ug/mL) | no binding (tested: 0.1 ug/mL) | 0.112 nM | 0.152 nM | – | –
4 | antibody 2866 (antibody, V domains shown) VH: QVQLVQSGAEVKKPGSSVKVSCKASGGTFSSYSISWVRQAPGQGLEWMGGLAPIFHTPNYAQKFQGRVTITADESTSTAYMELSSLRSEDTAVYYCARVAGAGWGVYGAFDYWGQGTLVTVSS VL: not shown | no binding (tested: 0.1 ug/mL) | no binding (tested: 0.1 ug/mL) | no binding (tested: 0.1 ug/mL) | 0.154 nM | 0.182 nM | – | –
